Measured values from the Human Domainome abundance scans (Beltran et al. 2025).
± gives the uncertainty stated by the source.

B1: Pre-mRNA-processing factor 40 homolog B, residues 274 to 332; numbered along this chain, Q6NWY9 (parent)
chain: SNREKAKQAFKELLRDKAVPSNASWEQAMKMVVTDPRYSALPKLSEKKQAFNAYKAQRE

Variants of: B1
Assay: abundance fitness (aPCA) (normalised: wild type 0, dead -1); higher = more abundant; growth selection in yeast, the domain comes from the species named
Details: Homo sapiens

Variant | abundance fitness
A53M | -0.394 ± 0.1
A53H | -0.476 ± 0.26
A53P | -0.494 ± 0.11
A53G | -0.293 ± 0.052
A53F | -0.835 ± 0.18
A53I | -0.372 ± 0.15
A53S | -0.089 ± 0.079
A53N | -0.079 ± 0.16
A53V | -0.274 ± 0.071
A53D | 0.042 ± 0.1
A53L | -0.314 ± 0.074
A53Y | -0.524 ± 0.19
N52A | -0.09 ± 0.079
N52S | -0.072 ± 0.075
N52D | -0.038 ± 0.12
N52K | 0.031 ± 0.12
N52P | -0.367 ± 0.096
N52Q | 0.062 ± 0.15
N52Y | -0.21 ± 0.14
N52T | -0.231 ± 0.1
N52G | -0.282 ± 0.065

Variant | abundance fitness
N52C | -0.129 ± 0.15
N52L | -0.04 ± 0.092
N52E | 0.253 ± 0.073
N52F | -0.901 ± 0.49
N52R | -0.053 ± 0.066
N52M | 0.039 ± 0.18
N52W | -0.431 ± 0.085
N52H | -0.053 ± 0.18
N52V | -0.11 ± 0.083
A56G | -0.242 ± 0.053
A56C | -0.451 ± 0.12
A56R | -0.116 ± 0.057
A56N | -0.18 ± 0.13
A56L | 0.034 ± 0.074
A56M | -0.127 ± 0.097
A56K | -0.015 ± 0.086
A56P | -0.454 ± 0.1
A56T | -0.122 ± 0.099
A56V | -0.076 ± 0.069
A56Q | 0.027 ± 0.086
A56S | -0.016 ± 0.069

Variant | abundance fitness
A56F | -0.526 ± 0.16
A56H | -0.102 ± 0.13
A56Y | -0.351 ± 0.13
A56W | -0.293 ± 0.079
A56I | -0.261 ± 0.12
Q49Y | -0.544 ± 0.24
Q49V | -0.205 ± 0.087
Q49W | -0.643 ± 0.1
Q49T | -0.364 ± 0.15
Q49S | -0.162 ± 0.098
E59D | -0.203 ± 0.16
E59S | -0.397 ± 0.13
E59A | 0.184 ± 0.14
E59G | -0.212 ± 0.074
E59Q | -0.033 ± 0.13
E59L | -0.424 ± 0.14
E59W | -0.54 ± 0.13
E59F | -0.53 ± 0.23
E59H | -0.204 ± 0.22
E59K | 0.055 ± 0.25
E59M | 0.167 ± 0.41

Variant | abundance fitness
E59T | -0.109 ± 0.13
E59C | -0.216 ± 0.29
E59R | -0.189 ± 0.074
E59V | 0.042 ± 0.1
K55P | -0.359 ± 0.093
K55S | -0.25 ± 0.075
K55Y | -0.644 ± 0.18
K55T | -0.242 ± 0.091
K55D | -0.29 ± 0.11
K55C | 0.12 ± 0.11
K55A | -0.304 ± 0.063
K55E | -0.333 ± 0.08
K55M | -0.356 ± 0.1
K55I | -0.11 ± 0.095
K55Q | -0.239 ± 0.12
K55W | -0.947 ± 0.11
K55H | -0.258 ± 0.19
K55N | -0.337 ± 0.12
K55V | -0.139 ± 0.061
K55F | -0.652 ± 0.17
K55R | -0.18 ± 0.057
